Test results as given in patent US20250277767A1.

Columns and labels:
[1] = molecular target: peptide #50 (cyclic EspB peptide, positions 197-211) (Enteropathogenic Escherichia coli (EPEC)); assay: ELISA, plate coated with peptide #50, serially diluted mAb
[2] = molecular target: peptide #49+50 (combined sequences of peptides #49 and #50) (Enteropathogenic Escherichia coli (EPEC)); assay: ELISA, plate coated with peptide #49+50, serially diluted mAb
[3] = molecular target: peptide #49 (cyclic EspB peptide, positions 193-207) (Enteropathogenic Escherichia coli (EPEC)); assay: ELISA, plate coated with peptide #49, serially diluted mAb

Row | Binder | EC50 (read off the curve) [1] | EC50 (read off the curve) [2] | EC50 (read off the curve) [3] | IC50 (read off the curve) (mAb-EspB-B7)
1 | mAb-EspB-B7 (antibody, V domains shown) VH: EVQLLESGGGLVQPGGSLRLSCAASGFTFSHYAMNWVRQAPGKGLEWVSAINSNGDSTYYPDTVKDRFTISRDNSKNTLYLQMNSLRAEDTAVYYCARDRRAGYFDYWGQGTLVTVSS VL: DIVLTQPPSASGTPGQRVTISCSGSRDNIGKNYVSWYQQLPGTAPKLLIYRNNQRPSGVPDRFSGSKSGTSASLAISGLRSEDEADYYCSAWDTSLNAYVFGPGTQLTVL | 0.5 µg/mL | 0.3 µg/mL | 0.5 µg/mL | 
2 | CTSAQKASQVAEEAADAAQEC (modifications not checked) [peptide #49+50 (combined sequences of peptides #49 and #50)] |  |  |  | 2 µg/mL
